Results as given in article PMC13356908.
Values belong to the molecule of their own block, whether it stands above or below them.

Experiments:
[1] = target: LD655-labeled p97 D592AzF (human) (UniProt P55072); assay: FRET or BRET; stopped-flow mixing, 37°C, with ATP; 1 uM ^LD655p97/UN/Faf1 and 0.1 uM Ub-^Cy3Ub-Ubn chains; excitation 480 nm; apparent time constant
[2] = target: LD655-labeled p97 D592AzF (human) (UniProt P55072); assay: cryo-EM structure; datasets 1 and 2: 12.5 uM ^LD655p97^D592AzF, 10 uM UN, 10 uM Faf1 FH-UBX, 20 uM Ub-^Cy3Ub-Ubn, GF buffer with 5 mM ATP, 0.06% CHAPS, 0.04% octyl-β-D-glucopyranoside, frozen at once after mixing; PI state, I state, Npl4 local map, IC1 and IC2
Ufd1 (human) (human) = target: T1, Ufd1 (human) (human)
T1 sequence (Q92890 1-307, looked up): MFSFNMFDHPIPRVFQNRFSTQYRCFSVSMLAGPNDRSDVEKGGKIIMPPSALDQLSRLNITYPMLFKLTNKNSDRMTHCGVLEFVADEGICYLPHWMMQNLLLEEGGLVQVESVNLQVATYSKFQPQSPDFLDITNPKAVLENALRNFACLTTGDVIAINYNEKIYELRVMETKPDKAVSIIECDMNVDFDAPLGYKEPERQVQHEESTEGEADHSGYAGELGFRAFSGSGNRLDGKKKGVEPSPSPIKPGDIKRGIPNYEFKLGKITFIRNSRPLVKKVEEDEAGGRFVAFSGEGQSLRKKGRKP

- apparent time constant of ubiquitin insertion (τinitiation) [1]: 5.1 s
Molecule: unanchored poly-ubiquitin chains with Cy3 on the second ubiquitin (Ub-^Cy3Ub-Ubn) (from UniProt P0CG48 1-76; P0CG48 1-76; P0CG48 1-76)

- stoichiometry N (per p97 hexamer) [2]: 2
Molecule: Faf1 FH-UBX fragment (from UniProt Q9UNN5 481-650) (domain or fragment)

- Eos-unfolding activity of p97-UN (Ufd1 (human) (human)): 5 fold
B1: Faf2 Δ1-271 (domain or fragment)
chain: YLVSERLEREERNQTQVLRQQQDEAYLASLRADQEKERKKREERERKRRKEEEVQQQKLAEERRRQNLQEEKERKLECLPPEPSPDDPESVKIIFKLPNDSRVERRFHFSQSLTVIHDFLFSLKESPEKFQIEANFPRRVLPCIPSEEWPNPPTLQEAGLSHTEVLFVQDLTDE
